Results: patent US12139520B2 (priority 2020, dated 2024)
Numbered stars: 1 amine (or outer) side, 2 acyl side, 3 side chain; on linkers, the order of the positions; unused ones are H or OH. Bridge positions count the residues as written; N and C are the ends. Square brackets hold non-standard residues; d marks the D form. Side chains are listed from the residue outwards. Ends that are not written are not given here. * marks the point of attachment. C20 diacid = O=C(O)CCCCCCCCCCCCCCCCCCC(=O)*; γGlu = O=C(O)[C@H](CCC(=O)[*:2])N[*:1]; Hyp = O=C(O)[C@@H]1C[C@@H](O)CN1; Cit = NC(=O)NCCC[C@H](N)C(=O)O; AEEA = NCCOCCOCC(=O)O

T1: hAMY3R (human, UniProt P30988)
T1 sequence 1: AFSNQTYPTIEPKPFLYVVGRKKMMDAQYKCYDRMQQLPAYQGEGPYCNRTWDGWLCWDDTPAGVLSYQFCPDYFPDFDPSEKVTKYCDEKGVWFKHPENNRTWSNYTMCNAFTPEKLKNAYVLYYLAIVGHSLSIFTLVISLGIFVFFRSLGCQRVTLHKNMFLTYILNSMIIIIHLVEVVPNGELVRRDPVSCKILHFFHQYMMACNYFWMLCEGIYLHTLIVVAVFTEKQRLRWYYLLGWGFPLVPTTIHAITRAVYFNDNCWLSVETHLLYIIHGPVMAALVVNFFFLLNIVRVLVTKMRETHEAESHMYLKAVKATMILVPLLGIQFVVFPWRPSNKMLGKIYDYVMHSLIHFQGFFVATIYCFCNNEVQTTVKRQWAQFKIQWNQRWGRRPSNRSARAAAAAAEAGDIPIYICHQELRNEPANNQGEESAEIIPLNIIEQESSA
T1 sequence 2: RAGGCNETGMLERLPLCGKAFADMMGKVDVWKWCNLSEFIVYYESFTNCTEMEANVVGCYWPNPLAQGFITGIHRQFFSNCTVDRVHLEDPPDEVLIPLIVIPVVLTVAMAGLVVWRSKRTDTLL


Experiments:
hAMY3R = molecular target: T1, hAMY3R; assay: cell-based or functional assay
hAM1R = hAM1R (human, UniProt Q16602); assay: cell-based or functional assay

hAMY3R EC50 (cAMP) (hAMY3R)	hAM1R EC50 (cAMP) (hAM1R)	Binder
0.025 nM	> 5000 nM	KCNTATCTVQWLAHQIYQFTDKDKDNVAAPTNVGSNG[Hyp]-NH2 (disulfide 2-7 (inferred); ends not checked) [SEQ ID NO: 325]
0.006 nM	3570 nM	GCRFGTCTVQWLAHQIYQFTDKDKDNVAPRTNIGPNG[Hyp]-NH2 (disulfide 2-7 (inferred); ends not checked) [SEQ ID NO: 331]
0.027 nM	2920 nM	GCRFGTCTVQWLAHQIYQFTDKDKDNVAPRSKVGPQG[Hyp]-NH2 (disulfide 2-7 (inferred); ends not checked) [SEQ ID NO: 353]
0.04 nM	1120 nM	GCRTGTCTVQWLAHQIYQFTDKDKDNVAPRSNIGPNG[Hyp]-NH2 (disulfide 2-7 (inferred); ends not checked) [SEQ ID NO: 352]
0.017 nM	117 nM	GCRFGTCTVQWLAHQIYQFTDKDKDNVAPRTKIGPNG[Hyp]-NH2 (disulfide 2-7 (inferred); ends not checked) [SEQ ID NO: 343]
0.121 nM	> 5000 nM	GCRTGTCTVQWLAHQIYQFTDKDKDNVAPRSKVGPQGY [SEQ ID NO: 344]
0.008 nM	> 5000 nM	KCNTATCTVQWLAHQIYQFTDKDKDNVAPPTNVGSNG[Hyp]-NH2 (disulfide 2-7 (inferred); ends not checked) [SEQ ID NO: 330]
0.053 nM	> 5000 nM	GCRFGTCTVQWLAHFLYQFTDKDKDNVAPRTNVGPQGY [SEQ ID NO: 326]
0.015 nM	> 5000 nM	GCRTGTCTVQWLAHQIYQFTDKDKDNVAPRTNVGPQGY [SEQ ID NO: 335]
0.007 nM	> 5000 nM	GCRTGTCTVQWLAHQIYQFTDKDKDNVAPRTNVGPNGY [SEQ ID NO: 332]
0.09 nM	> 5000 nM	GCRFGTCTVQWLAHFLYQFTDKDKDNVAPRTNVGSNTY [SEQ ID NO: 327]
0.022 nM	671 nM	GCRFGTCTVQWLAHQIYQFTDKDKDNVAPRTNVSPQGY [SEQ ID NO: 340]
0.943 nM	> 5000 nM	GCRIGTCTVQWLAHQIYQFTDKFKDNVAPRSKISPQT[Hyp]-NH2 (disulfide 2-7 (inferred); ends not checked) [SEQ ID NO: 351]
0.019 nM	1580 nM	GCRFGTCTVQWLAHQIYQFTDKDKDNVAPRTKISPNG[Hyp]-NH2 (disulfide 2-7 (inferred); ends not checked) [SEQ ID NO: 337]
0.047 nM	> 5000 nM	GCRTGTCTVQWLAHQIYQFTDKDKDNVAPRTKIGPNG[Hyp]-NH2 (disulfide 2-7 (inferred); ends not checked) [SEQ ID NO: 339]

The next lines start with the binder.

Binder	hAMY3R EC50 (cAMP) (hAMY3R)	hAM1R EC50 (cAMP) (hAM1R)
GCRTGTCTVQWLAHQIYQFTDKDKDNVAPRSNVGPQG[Hyp]-NH2 (disulfide 2-7 (inferred); ends not checked) [SEQ ID NO: 342]	0.054 nM	> 5000 nM
GCRFGTCTVQWLAHQIYQFTDKDKDNVAPRTKISPQG[Hyp]-NH2 (disulfide 2-7 (inferred); ends not checked) [SEQ ID NO: 350]	0.044 nM	1180 nM
KCK([AEEA-AEEA-γGlu-C20 diacid])TATCTVQRLAEQIYQFTDKDKDNVAPPTNVGSNG[Hyp]-NH2 (disulfide 2-7 (inferred); ends not checked) [SEQ ID NO: 36]	0.009 nM	> 5000 nM
{C20 diacid-γGlu}-KCNTATCTVQRLAHQIQQFTDKDKDNVAPPTNVGSNG[Hyp]-NH2 (disulfide 2-7 (inferred); ends not checked) [SEQ ID NO: 35]	0.009 nM	> 5000 nM
GCRTGTCTVQWLAHQIYQFTDKDKDNVAPRTNIGPNGY [SEQ ID NO: 348]	0.041 nM	> 5000 nM
KCNTATCTVQWLAHQIYQFDKDKDNVAPPTNVGSNG[Hyp]-NH2 (disulfide 2-7 (inferred); ends not checked) [SEQ ID NO: 329]	0.032 nM	> 5000 nM
{C20 diacid-γGlu}-KCNTATCTVDRLAHQIYQFTDKDKDNVAPPTNVGSNG[Hyp]-NH2 (disulfide 2-7 (inferred); ends not checked) [SEQ ID NO: 4]	0.006 nM	> 5000 nM
GCRTGTCTVQWLAHQIYQFTDKDKDNVAPRSKIGPNG[Hyp]-NH2 (disulfide 2-7 (inferred); ends not checked) [SEQ ID NO: 355]	0.14 nM	> 5000 nM
GCRTGTCTVQWLAHQIYQFTDKDKDNVAPRSKVGPNG[Hyp]-NH2 (disulfide 2-7 (inferred); ends not checked) [SEQ ID NO: 347]	0.068 nM	> 5000 nM
KCNTATCTVQWLAHQIYQFTDKDKDNVAPRTEVGSNGY [SEQ ID NO: 334]	0.013 nM	> 5000 nM
KCNTATCTVQRLAHQIYQFTDKDKDNVAPRTKVGSNGY [SEQ ID NO: 34]	0.009 nM	54.6 nM
GCRTGTCTVQWLAHQIYQFTDKDKDNVAPRSNVGPQGY [SEQ ID NO: 346]	0.085 nM	> 5000 nM
GCRFGTCTVQWLAHQIYQFTDKDKDNVAPRSNVSPQGY [SEQ ID NO: 345]	0.051 nM	113 nM
GCRTGTCTVQWLAHQIYQFTDKDKDNVAPRTKVGPQGY [SEQ ID NO: 354]	0.091 nM	> 5000 nM
RCQASTCTVA[Cit]LAEQIAQYTDKDKDQVAPPTEVGPNS[Hyp]-NH2 (disulfide 2-7 (inferred); ends not checked) [SEQ ID NO: 33]	0.008 nM	> 5000 nM
GCRTGTCTVQWLAHQIYQFTDKDKDNVAPRTKVGPQG[Hyp]-NH2 (disulfide 2-7 (inferred); ends not checked) [SEQ ID NO: 349]	0.046 nM	> 5000 nM
KCNTATCTVQWLAHQIYQFTDADKDNVAPPTNVGSNG[Hyp]-NH2 (disulfide 2-7 (inferred); ends not checked) [SEQ ID NO: 328]	0.01 nM	> 5000 nM
GCRFGTCTVQWLAHQIYQFTDKDKDNVAPRTKIGPQG[Hyp]-NH2 (disulfide 2-7 (inferred); ends not checked) [SEQ ID NO: 336]	0.029 nM	738 nM
GCRTGTCTVQWLAHQIYQFTDKDKDNVAPRTNIGPQG[Hyp]-NH2 (disulfide 2-7 (inferred); ends not checked) [SEQ ID NO: 341]	0.029 nM	> 5000 nM
KCNAATCTVQWLAEQIYQFTDKDKDNVAPPTNVGSNG[Hyp]-NH2 (disulfide 2-7 (inferred); ends not checked) [SEQ ID NO: 333]	0.236 nM	107 nM
KCNTATCTVQWLAHQIYQATDKDKDNVAPPTNVGSNG[Hyp]-NH2 (disulfide 2-7 (inferred); ends not checked) [SEQ ID NO: 338]	0.089 nM	> 5000 nM
